From paper PMC9546771

Molecular target: His-tagged human FcRn/β2-microglobulin complex (human) (UniProt P55899)
Assay: SPR; Biacore 8K, CM5 chip; His-tagged human FcRn/β2-microglobulin captured (45-60 RU) on covalently linked anti-His antibody; IgG1 injected as two-fold, eight-step series 75 nM to 0.29 nM; 25 °C; 20 mM phosphate pH 6.0, 137 mM NaCl, 2.7 mM KCl, 0.05% Tween-20; 1:1 binding model, apparent constants, KD = kd/ka; n=3 …

- Kd: 67.6 nM
- koff: 0.0439 s⁻¹
- kon: 649000 M⁻¹ s⁻¹
Substance: IgG1-Campath (antibody)
